A short description of the data set: yeast display, Sf9 membrane polyspecificity reagent, FACS + sequencing; frameworks hold sequencing errors. An outline of the steps:
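Nanobodies came from a synthetic yeast display library in Saccharomyces cerevisiae BJ5465, induced with galactose for 36–48 hours and stained for 1 hour at 4 °C with 10% biotinylated, detergent-solubilized Sf9 membrane reagent. Cells were enriched on streptavidin microbeads and then FACS-sorted, with low and high (top ~1%) gates set on anti-HA fluorescence for expression and streptavidin fluorescence for reagent binding. Each polyreactivity label reflects the gate a clone came from. Genes were amplified by colony PCR, sequenced by MiSeq 2 × 250 and filtered by CDR length.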
In the case of “QVQLVESGGGLVQAGGSLRLSCAASGRIFRVNAMGWYRQAPGKERELVAAISRRGGRTYYADSVKGRFTISRDNAKNTVYLQMNSMKPEDTAVYYCNADSVTSAGSLGRAEYGYWVQGTQVTVSS”, the “polyreactivity (PSR sort gate)” value is recorded as “high polyreactivity”. Next, “QVQLVESGGGLVQAGGSLRLSCAASGRIFRVNAMGWYRQAPGKERELVARIDSGGRTNYADSVKGRFTISRDNAKNTVYLQMTSLKPEDTAVYYCARVFSLARSWYRYYYWGQGTQVTVSS”: “high polyreactivity”. For the sequence “QVQLVESGGGLVQAGGSLRLSCAASGRIFRVYALGWSRQAPGKERELVAAITSGGSTYYADSVKGRFTISRDNAKNTVYLQMNSLKPEDSAVYYCAAKRFRYRPGDYWGQGTQVTVSS”, the “polyreactivity (PSR sort gate)” value was “high polyreactivity”. For the sequence “QVQLVESGGGLVQAGGSLRLSCAASGRIFRVYAMGWSRQAPGKERELVASITRTGGGTYYADSVKGRFTNSRDNAKNTVYLQMNRLKPEDPAVYYCAADAFIPGYQLHYHWGQGTQVTVSS”, the “polyreactivity (PSR sort gate)” value is “low polyreactivity”. The entry for “QVQLVESGGGLVQAGGSLRLSCAASGRIFRVYAMGWYRPAPGKERELVATIRRGSSTYYADSVKGRFTISRDNAKNTVYLQMNSLKPEDTAVYYCADRSSRRGPISEGDYWGQGTQVTVSS” is “high polyreactivity”; for “QVQLVESGGGLVQAGGSLRLSCAASGRIFRVYAMGWYRQAPGKERELVAAISSSGGSTYYADSVKGRFTISRDNAKNTVYLQMNSLKPEDTAVYYCAAGGLHTIQRPGYYYWGLGTQVTVSS” it is “low polyreactivity”.

With “QVQLVESGGGLVQAGGSLRLSCAASGRIFRVYAMGWYRQAPGKERELVAAISWSGGRTYYADSVKGRFTISRDNAKNTVYLQMNSLKPEDTAVYYCAAERGGPTYYSGGDYDYWGQGTQVTVSS”, the “polyreactivity (PSR sort gate)” value is on record as “high polyreactivity”. The entry for “QVQLVESGGGLVQAGGSLRLSCAASGRIFRWYAMGWYRQAPGKERELVATISSSGRTNYADSVKGRFTISRDNAKNTVYLQMNSLKPEDTAVYYCNADGGDWFGYVGMDYWGQGTQVTVSS” is “high polyreactivity”; for “QVQLVESGGGLVQAGGSLRLSCAASGRIFRWYAMGWYRQAPGKERELVATISSTGGSTYYADSVKGRFTISRDNAKNTDYLQMNSLKPEDTAVYDCNAVVYGIFLYAWYDYWGQGTQVTVSS” it is “low polyreactivity”; for “QVQLVESGGGLVQAGGSLRLSCAASGRIFRYNALGWYRQAPGKERELVAAITWNGASTFYADSVKGRFTISRDNAKNTVYLQMNSLKPEDTAVYYCATVRDISGYLYWSYNLYDYWGQGTQVTVSS” it is “high polyreactivity”. The entry for “QVQLVESGGGLVQAGGSLRLSCAASGRIFRYNAMGWYRPAPGKERELVAAIRFSGGSTYYADSVKGRFTISRDHAKNTVYLQMNSLKPEDTAVYDCAKVYFRVQSGMDYWGQGTQVTVSS” is “low polyreactivity”. The entry for “QVQLVESGGGLVQAGGSLRLSCAASGRIFRYNAMGWYRQAPGKERELVAAISYRTGSTHYADSVKGRFTISRDNAKNTVYLQMNILKPEDTAVYYCAYVPGYCYWGQGTQVTVSS” is “low polyreactivity”; for “QVQLVESGGGLVQAGGSLRLSCAASGRIFRYNAMGWYRQAPGKERELVATISWSGGRTYYADSVKGRFTISRDNAKNTVYLQMNSLKPEDNAVYYCAAYSYRGFGEYDYWGQGTQVTVSS” it is “high polyreactivity”; for “QVQLVESGGGLVQAGGSLRLSCAASGRIFRYYAMGGYRQAPGKERELVATISRSGGSTFYAYSVKGRFTISRDNAKNTVYLQMNSLKPEDTAVYYCNARYQTGGYGYWGQGTQVTVSS” it is “high polyreactivity”.

With “QVQLVESGGGLVQAGGSLRLSCAASGRIFRYYAMGWYRQAPGKERELVAAISGGGGTYYADSVKGRFTISRDNATNTVYLQMNSLKPEDTAVYYCNAETYDYWFGYDYWGQGTQVTVSS”, the “polyreactivity (PSR sort gate)” value is listed as “high polyreactivity”. Next, “QVQLVESGGGLVQAGGSLRLSCAASGRIFRYYAMGWYRQAPGKERELVAAISGSGGSTYYADSVKGRFTISRDNAKNTVYLQMNSLKPEDTAVYYCNARYRIPSGEGDHWGQGTQVTVSS”: “low polyreactivity”; “QVQLVESGGGLVQAGGSLRLSCAASGRIFRYYAMGWYRQAPGKERELVAAISYSGGRTYYADSVKGRFTISRDNAKNTVYLQMNSLKPEDTAVYYCNARARSRKFYYWGQGTQVTVSS”: “high polyreactivity”.

Turning to “QVQLVESGGGLVQAGGSLRLSCAASGRIFRYYAMGWYRQAPGKERELVAAITSSGSNTYYADSVKGRFTISRDNAKNTVYLQMNSLKPEDTAVYYCNARWRLVSSGFDGGYWGQGTQVTVSS”, the “polyreactivity (PSR sort gate)” value is “high polyreactivity”.

On to “QVQLVESGGGLVQAGGSLRLSCAASGRIFRYYAMGWYRQAPGKERELVASITRRGGSTYYADSVKGRFTISRDNAKNTVYLQMNSLKPEDTAVYYCAADTYYNLGNYWGQGTQVTVSS”, for which the “polyreactivity (PSR sort gate)” value is “high polyreactivity”. The entry for “QVQLVESGGGLVQAGGSLRLSCAASGRIFRYYAMGWYRQAPGKERELVASITSGARTSYADSVKGRFTISRDNAKNTVYLQMNSLKPEDTAVYYCAPGYSYSPGRMGYWGQGTQVTVSS” is “high polyreactivity”. The entry for “QVQLVESGGGLVQAGGSLRLSCAASGRIFRYYAMGWYRQAPGKERELVATISGRGGSTYYADSVKGRFTISRDNAKNTVYLQMNSLKPEDTAVYYCNTVSTRYIYDYWGQGTQVTVSS” is “high polyreactivity”; for “QVQLVESGGGLVQAGGSLRLSCAASGRIFRYYAMGWYRQAPGQERELVAAITWSGGSTYYADSVKGRFTISRDNAKNTVYLQMNSLKPEDTAVYYCNAKSYQPFHGDYWGQGTQVTVSS” it is “low polyreactivity”. Next, “QVQLVESGGGLVQAGGSLRLSCAASGRIFRYYAMGWYRQAPVKDRELVARINIGGSTYYADSVKGRFTISRDNAKNTVYLKMNSLLREDTAVYYCAAVPRPVSRTIWGDYWGEGTQVTVSS”: “high polyreactivity”.

As to “QVQLVESGGGLVQAGGSLRLSCAASGRIFRYYMRWYRQAPGKERKLVAVISSGGRTKYADSVKGRFTISRDNAKNTVYLQMNILKPQDTAVYYCAARYPREAAYVFDYWGQGTLVTVSS”, the “polyreactivity (PSR sort gate)” value was “high polyreactivity”. The entry for “QVQLVESGGGLVQAGGSLRLSCAASGRIFRYYTMGWYRQAPGKERELVAAITSSSGSTYYADSVKGRFTISRDNAKNTVYLQMNSLKPEDTAVYYCNAVRYTTQTPKVDYGYWGQGTQVTVSS” is “high polyreactivity”; for “QVQLVESGGGLVQAGGSLRLSCAASGRIFRYYTMGWYRQAPGKERELVATITSDGRTNYADSVKGRFTISRDNAKNTVYLQMNSLKPEDTALYYCAAVYHRSYSLQSYGYWGQGTQVTVSS” it is “high polyreactivity”. As to “QVQLVESGGGLVQAGGSLRLSCAASGRIFRYYTMGWYRQEPGKERELVAAITGSGGSTYYADSVKGRFTISRDNAKTTVYLQMNSLKPEDTAVYYCAARGYLDMGYWGQGTQVTVSS”, the “polyreactivity (PSR sort gate)” value is “high polyreactivity”. “QVQLVESGGGLVQAGGSLRLSCAASGRIFSAYAMGWYRPAPGKERELVAAISKRGGRTYYADSVKGRFTISRDNAKNTVYLQMNSLKPEDTAVYYCNKRYHDGHELDYWGQGTQVTVSS”: the “polyreactivity (PSR sort gate)” value is given as “high polyreactivity”. Regarding “QVQLVESGGGLVQAGGSLRLSCAASGRIFSAYAMGWYRQAPGKERELVAVISSADSTNYADSVKGRFTITRDNAKNTVYLQINSLKPEDNAVYYCNARGKHRYGFRSHVGNEYWGQGTQVTVSS”, the “polyreactivity (PSR sort gate)” value was “low polyreactivity”.

As for “QVQLVESGGGLVQAGGSLRLSCAASGRIFSAYVMGWNRQAPGKERELVAAISSGGTRTSYADSVKGRFTISRDNAKNTVYLQMNSLTPEDTAVYYCAAARFYRSAYGYWGQGTQVTVSS”, the “polyreactivity (PSR sort gate)” value is reported as “high polyreactivity”.

(Values after the nanobody polyreactivity screen of Harvey et al. (2022).)
